According to patent US20260217779:
Changes are numbered by the printed parent chain.

Tests used:
[1] = target: T1, hCXCL11.0022-G1T4k.one//VHn-G1T4h.one.H435R
T1 chain 1: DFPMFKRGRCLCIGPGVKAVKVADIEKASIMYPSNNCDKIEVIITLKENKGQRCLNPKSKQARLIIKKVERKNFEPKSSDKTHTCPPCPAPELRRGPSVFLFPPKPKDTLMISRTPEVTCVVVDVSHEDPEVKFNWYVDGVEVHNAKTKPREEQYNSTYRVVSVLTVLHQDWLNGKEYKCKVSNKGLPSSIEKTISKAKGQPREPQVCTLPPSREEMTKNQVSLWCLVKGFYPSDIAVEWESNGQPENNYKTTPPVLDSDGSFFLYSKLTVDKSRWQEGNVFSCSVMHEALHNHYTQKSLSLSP
T1 chain 2: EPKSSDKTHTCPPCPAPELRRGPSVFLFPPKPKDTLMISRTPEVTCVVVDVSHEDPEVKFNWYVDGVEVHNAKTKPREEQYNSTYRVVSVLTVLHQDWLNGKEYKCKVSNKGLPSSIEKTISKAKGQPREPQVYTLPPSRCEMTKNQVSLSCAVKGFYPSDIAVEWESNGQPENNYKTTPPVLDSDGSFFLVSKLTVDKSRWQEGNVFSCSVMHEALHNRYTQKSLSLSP

[2] = target: T2, hCXCL11.0025-G1T4k.one//VHn-G1T4h.one.H435R
T2 chain 1: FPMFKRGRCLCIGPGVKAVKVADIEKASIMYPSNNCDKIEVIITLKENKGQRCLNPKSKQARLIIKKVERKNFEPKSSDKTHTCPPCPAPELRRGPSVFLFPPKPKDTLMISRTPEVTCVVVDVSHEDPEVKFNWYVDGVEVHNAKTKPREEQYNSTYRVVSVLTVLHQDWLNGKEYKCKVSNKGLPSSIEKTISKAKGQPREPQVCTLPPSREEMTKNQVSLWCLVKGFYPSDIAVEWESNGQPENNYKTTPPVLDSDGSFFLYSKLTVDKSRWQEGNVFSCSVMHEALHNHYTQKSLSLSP
T2 chain 2: T1 chain 2

[3] = target: T3, hCXCL11.0030-G1T4k.one//VHn-G1T4h.one.H435R
T3 chain 1: T1 chain 1 with D1M
T3 chain 2: T1 chain 2

[4] = target: T4, hCXCL11.0037-G1T4k.one//VHn-G1T4h.one.H435R
T4 chain 1: T1 chain 1 with D1V
T4 chain 2: T1 chain 2

[5] = target: T5, hCXCL11.0039-G1T4k.one//VHn-G1T4h.one.H435R
T5 chain 1: T1 chain 1 with D1Y
T5 chain 2: T1 chain 2

[6] = target: T6, hITIP0023-G1T4k.one//VHn-G1T4h.one.H435R
T6 chain 1: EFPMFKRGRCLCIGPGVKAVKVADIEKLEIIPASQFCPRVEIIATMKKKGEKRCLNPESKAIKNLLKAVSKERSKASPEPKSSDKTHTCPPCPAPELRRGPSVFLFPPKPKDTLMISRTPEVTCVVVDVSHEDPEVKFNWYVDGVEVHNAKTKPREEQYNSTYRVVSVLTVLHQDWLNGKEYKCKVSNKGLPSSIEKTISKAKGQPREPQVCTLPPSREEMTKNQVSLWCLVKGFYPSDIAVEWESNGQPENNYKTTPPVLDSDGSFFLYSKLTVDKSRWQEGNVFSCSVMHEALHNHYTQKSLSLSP
T6 chain 2: T1 chain 2

[7] = target: T7, hITIP0037-G1T4k.one//VHn-G1T4h.one.H435R
T7 chain 1: T6 chain 1 with E1V
T7 chain 2: T1 chain 2

[8] = target: T8, hITIP0039-G1T4k.one//VHn-G1T4h.one.H435R
T8 chain 1: T6 chain 1 with E1Y
T8 chain 2: T1 chain 2

B1: human dipeptidyl peptidase IV (human DPPIV, hDPPIV) (Biolegend, 764102) (protein)
chain: NKGTDDATADSRKTYTLTDYLKNTYRLKLYSLRWISDHEYLYKQENNILVFNAEYGNSSVFLENSTFDEFGHSINDYSISPDGQFILLEYNYVKQWRHSYTASYDIYDLNKRQLITEERIPNNTQWVTWSPVGHKLAYVWNNDIYVKIEPNLPSYRITWTGKEDIIYNGITDWVYEEEVFSAYSALWWSPNGTFLAYAQFNDTEVPLIEYSFYSDESLQYPKTVRVPYPKAGAVNPTVKFFVVNTDSLSSVTNATSIQITAPASMLIGDHYLCDVTWATQERISLQWLRRIQNYSVMDICDYDESSGRWNCLVARQHIEMSTTGWVGRFRPSEPHFTLDGNSFYKIISNEEGYRHICYFQIDKKDCTFITKGTWEVIGIEALTSDYLYYISNEYKGMPGGRNLYKIQLSDYTKVTCLSCELNPERCQYYSVSFSKEAKYYQLRCSGPGLPLYTLHSSVNDKGLRVLEDNSALDKMLQNVQMPSKKLDFIILNETKFWYQMILPPHFDKSKKYPLLLDVYAGPCSQKADTVFRLNWATYLASTENIIVASFDGRGSGYQGDKIMHAINRRLGTFEVEDQIEAARQFSKMGFVDNKRIAIWGWSYGGYVTSMVLGSGSGVFKCGIAVAPVSRWEYYDSVYTERYMGLPTPEDNLDHYRNSTVMSRAENFKQVEYLLIHGTADDNVHFQQSAQISKALVDVGVDFQAMWYTDEDHGIASSTAHQHIYTHMSHFIKQCFSLP
- cleavage by hDPPIV (LC/MS mass) [1]: showed no mass change suggestive of peptide bond cleavage by hDPPIV treatment
- cleavage by hDPPIV (LC/MS mass) [2]: showed no mass change suggestive of peptide bond cleavage by hDPPIV treatment
- cleavage by hDPPIV (LC/MS mass) [3]: showed no mass change suggestive of peptide bond cleavage by hDPPIV treatment
- cleavage by hDPPIV (LC/MS mass) [4]: showed no mass change suggestive of peptide bond cleavage by hDPPIV treatment
- cleavage by hDPPIV (LC/MS mass) [5]: showed no mass change suggestive of peptide bond cleavage by hDPPIV treatment
- cleavage by hDPPIV (LC/MS mass) [6]: showed no mass change suggestive of peptide bond cleavage by hDPPIV treatment
- cleavage by hDPPIV (LC/MS mass) [7]: showed no mass change suggestive of peptide bond cleavage by hDPPIV treatment
- cleavage by hDPPIV (LC/MS mass) [8]: showed no mass change suggestive of peptide bond cleavage by hDPPIV treatment
